# Laboratory results as given in US5811298, “Rep-max protein having anti-oncogenic activity and uses thereof” (Albert Einstein College of Medicine of Yeshiva University, …, dated 1998).
# Molecular target: mouse c-Myc (mouse, UniProt P01108-2)
# Assay: cell-based or functional assay
row,Binder,"fold suppression of c-myc/RAS foci formation, REF cooperation assay [fold suppression]"
1,mouse Mxi-Δrep (other) MERFPSMPSPRLQHSKPPRRLSRAQKHSSGSSNTSTANRSTHNELEKNRRAHLRLCLKRLKVLIPLGPDCTRHTTLGLLNKAKAHIKKLEEAERKSQHQLENLEREQRFLKRRLEQLQGPQEMERIRMDSIGSTISSDRSDSEREEIEVDVESTEFSHGKADSVSTTSISDLDDHSSLQSVGSDEGYSSASVKLSFAS,1.57
2,mouse Mxi-SR protein (other) MERVRMINVQRLLEAAEFLERRERECEHGYASSFPSMPSPRLQHSKPPRRLSRAQKHSSGSSNTSTANRSTHNELEKNRRAHLRLCLKRLKVLIPLGPDCTRHTTLGLLNKAKAHIKKLEEAERKSQHQLENLEREQRFLKRRLEQLQGPQEMERIRMDSIGSTISSDRSDSEREEIEVDVESTEFSHGKADSVSTTSISDLDDHSSLQSVGSDEGYSSASVKLSFAS,8.1
3,human MXI protein (other) MERVKMINVQRLLEAAEFLERRERECEHGYASSFPSMPSPRLQHSKPPRRLSRAQKHSSGSSNTSTANRSTHNELEKNRRAHLRLCLKRLKVLIPLGPDCTRHTTLGLLNKAKAHIKKLEEAERKSQHQLENLEREQRFLKWRLEQLQGPQEMERIRMDSIGSTISSDRSDSEREEIEVDVESTEFSHGKVDNISTTSISDIDDHSSLPSIGSDEGYSSASVKLSFTS,5.3
4,mouse Mxi-SR-pro (other) MERVRMINVQRLLEAAEFPERRERECEHGYASSFPSMPSPRLQHSKPPRRLSRAQKHSSGSSNTSTANRSTHNELEKNRRAHLRLCLKRLKVLIPLGPDCTRHTTLGLLNKAKAHIKKLEEAERKSQHQLENLEREQRFLKRRLEQLQGPQEMERIRMDSIGSTISSDRSDSEREEIEVDVESTEFSHGKADSVSTTSISDLDDHSSLQSVGSDEGYSSASVKLSFAS,1.78
5,mouse Mxi-WR protein (other) MPSPRLQHSKPPRRLSRAQKHSSGSSNTSTANRSTHNELEKNRRAHLRLCLKRLKVLIPLGPDCTRHTTLGLLNKAKAHIKKLEEAERKSQHQLENLEREQRFLKRRLEQLQGPQEMERIRMDSIGSTISSDRSDSEREEIEVDVESTEFSHGKADSVSTTSISDLDDHSSLQSVGSDEGYSSASVKLSFAS,1.74
